The values below come from publication PMC3315329.

Assay [1] addresses 40S ribosomal subunits of asc1Δ cells (lacking ASC1) (S. cerevisiae (endogenous in yeast)) (UniProt P32905). Description: cross-linking + co-sedimentation.
Assay [2] has as its target 40S ribosomal subunits (wild type) (S. cerevisiae (endogenous in yeast)) (UniProt P38011). Description: cross-linking + co-sedimentation.
UniProt P38011, sequence (P38011 whole entry, looked up, tested part not stated): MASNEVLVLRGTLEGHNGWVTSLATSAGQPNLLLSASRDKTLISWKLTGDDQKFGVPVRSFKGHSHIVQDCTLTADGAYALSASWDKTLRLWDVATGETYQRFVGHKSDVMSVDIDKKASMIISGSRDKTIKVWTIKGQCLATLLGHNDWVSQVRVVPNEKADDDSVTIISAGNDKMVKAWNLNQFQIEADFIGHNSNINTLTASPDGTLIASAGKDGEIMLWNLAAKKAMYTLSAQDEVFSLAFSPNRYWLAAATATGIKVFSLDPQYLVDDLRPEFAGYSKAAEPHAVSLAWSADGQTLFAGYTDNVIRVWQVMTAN

UniProt P32905, sequence (P32905 whole entry, looked up, stated change not applied, tested part not stated): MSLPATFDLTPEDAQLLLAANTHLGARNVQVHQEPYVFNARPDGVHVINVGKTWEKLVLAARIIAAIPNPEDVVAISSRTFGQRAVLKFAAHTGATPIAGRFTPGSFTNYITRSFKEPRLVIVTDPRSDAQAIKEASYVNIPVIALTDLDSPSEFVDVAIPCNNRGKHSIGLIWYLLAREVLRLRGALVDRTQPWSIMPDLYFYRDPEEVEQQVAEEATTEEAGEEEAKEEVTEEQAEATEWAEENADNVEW

In the case of “eIF2 (from UniProt P20459 1-304; P09064 1-285; P32481 1-527) (complex)”, in assay [1], the reduction of the 40S-associated amount relative to wt is 50%.
For “eIF5 (from UniProt P38431 1-405) (natural protein)”, the reduction of the 40S-associated amount relative to wt in assay [1] turned out to be 50%. Moreover, in assay [2], the reduction of the 40S-bound amount in nip1-Δ60 cells relative to wt is 20% and the reduction of the eIF/40S ratio in nip1-743A752 cells relative to wt came to 60%.
